This note sets out measurements from patent US11814447B2, “Peptide ligands for binding to EphA2” (BICYCLERD LIMITED, priority 2018, dated 2023).

Starred links: 1 amine or outer side, 2 acyl side, 3 side chain; linkers in the order of their positions; H or OH if unused. Positions of bridges follow the written chain, without caps; N, C: chain ends. Non-standard residues stand in square brackets, D forms with d. Primed or numbered codes have the meaning given here. No end group written: not given here. TBMB′ = 1,3,5-tris(bromomethyl)benzene, 1,3,5-tris(methylene)benzene core, three thioethers to Cys; 4BenzylPro = 4-benzyl-pyrrolidine-2-carboxylic acid; Dip = N[C@H](C(=O)O)C(c1ccccc1)c1ccccc1; 1Nal = N[C@@H](Cc1cccc2ccccc12)C(=O)O; TBMB = c1c(C[*:1])cc(C[*:3])cc1C[*:2]; Ala(cPr) = N[C@@H](CC1CC1)C(=O)O; hArg = N=C(N)NCCCC[C@H](N)C(=O)O; Gly(cPr) = N[C@H](C(=O)O)C1CC1; Cba = N[C@@H](CC1CCC1)C(=O)O; Tle = CC(C)(C)[C@H](N)C(=O)O; Ac5c = NC1(C(=O)O)CCCC1; Ac4c = NC1(C(=O)O)CCC1; Ac3c = NC1(C(=O)O)CC1; Aib = CC(C)(N)C(=O)O; Sar = CNCC(=O)O

First the molecules themselves.
B1: Bicycle Compound 150 (peptide)
peptide: ADVHCP[1Nal]GPFWCPVNRPGCA
modifications: linker 5-12-19 via TBMB
B2: Bicycle Compound 185 (peptide)
peptide: [dD]VTCPWGPFWCPVNRPGC
modifications: linker 4-11-18 via TBMB
B3: Bicycle Compound 149 (peptide)
peptide: ADVHCP[Dip]GPFWCPVNRPGCA
modifications: linker 5-12-19 via TBMB
B4: Bicycle Compound 167 (peptide)
peptide: Ac-[Sar][Sar]A[dD]VTC[Ac5c]WGPFWCPVNRPGC
modifications: linker 7-14-21 via TBMB′
B5: Bicycle Compound 166 (peptide)
peptide: Ac-[Sar][Sar]A[dD]VTC[Ac4c]WGPFWCPVNRPGC
modifications: linker 7-14-21 via TBMB′
B6: Bicycle Compound 165 (peptide)
peptide: Ac-[Sar][Sar]A[dD]VTC[Ac3c]WGPFWCPVNRPGC
modifications: linker 7-14-21 via TBMB′
B7: Bicycle Compound 168 (peptide)
peptide: Ac-[Sar][Sar]A[dD]VTC[4BenzylPro]WGPFWCPVNRPGC
modifications: linker 7-14-21 via TBMB′
B8: Bicycle Compound 177 (peptide)
peptide: Ac-[Sar][Sar]A[dD]VTCPWGPFWCPVNR[Aib][dD]C
modifications: linker 7-14-21 via TBMB′
B9: Bicycle Compound 189 (peptide)
peptide: AHDVPCPWGPF[1Nal]CPVNRPGC
modifications: linker 6-13-20 via TBMB
B10: Bicycle Compound 162 (peptide)
peptide: Ac-[Sar][Sar]A[dD][Gly(cPr)]TCPWGPFWCPVNRPGC
modifications: linker 7-14-21 via TBMB′
B11: Bicycle Compound 157 (peptide)
peptide: Ac-[Sar][Sar]ADVTCPWGPFWCPVNRPGC
modifications: linker 7-14-21 via TBMB′
B12: Bicycle Compound 148 (peptide)
peptide: Ac-[Sar][Sar]ADVHCPWGPFWCPVNRPGC
modifications: linker 7-14-21 via TBMB
B13: Bicycle Compound 172 (peptide)
peptide: Ac-[Sar][Sar]A[dD]VTCPWGPNWCPVNRPGC
modifications: linker 7-14-21 via TBMB′
B14: Bicycle Compound 224 (peptide)
peptide: Ac-[Sar][Sar][dH]DVPCPWGPFWCPVNRPGC
modifications: linker 7-14-21 via TBMB
B15: Bicycle Compound 159 (peptide)
peptide: Ac-[Sar][Sar]A[dD][dD]TCPWGPFWCPVNRPGC
modifications: linker 7-14-21 via TBMB′
B16: Bicycle Compound 174 (peptide)
peptide: Ac-[Sar][Sar]A[dD]VTCPWGPFWCPLNRPGC
modifications: linker 7-14-21 via TBMB′
B17: Bicycle Compound 170 (peptide)
peptide: Ac-[Sar][Sar]A[dD]VTCP[1Nal]GPFWCPVNRPGC
modifications: linker 7-14-21 via TBMB′
B18: Bicycle Compound 178 (peptide)
peptide: Ac-[Sar][Sar]A[dD]VTCP[1Nal]G[Aib]FWCPVNR[Aib]GC
modifications: linker 7-14-21 via TBMB′
B19: Bicycle Compound 266 (peptide)
peptide: Ac-[Sar][Sar]H[dD]VPCP[1Nal]G[Aib]FWCPVNR[Aib]GC
modifications: linker 7-14-21 via TBMB
B20: Bicycle Compound 180 (peptide)
peptide: Ac-[Sar][Sar]A[dD]VTCPWG[Aib]FWCP[Tle]NR[Aib]GC
modifications: linker 7-14-21 via TBMB′
B21: Bicycle Compound 270 (peptide)
peptide: Ac-[Sar][Sar]H[dD]VPCPWG[Aib]FWCP[Tle]NR[Aib]GC
modifications: linker 7-14-21 via TBMB
B22: Bicycle Compound 160 (peptide)
peptide: Ac-[Sar][Sar]A[dD][Cba]TCPWGPFWCPVNRPGC
modifications: linker 7-14-21 via TBMB′
B23: Bicycle Compound 161 (peptide)
peptide: Ac-[Sar][Sar]A[dD][Ala(cPr)]TCPWGPFWCPVNRPGC
modifications: linker 7-14-21 via TBMB′
B24: Bicycle Compound 187 (peptide)
peptide: AHDVPCP[1Nal]GPFWCPVNRPGCA
modifications: linker 6-13-20 via TBMB′
B25: Bicycle Compound 164 (peptide)
peptide: Ac-[Sar][Sar]AD[Tle]TCPWGPFWCPVNRPGC
modifications: linker 7-14-21 via TBMB′
B26: Bicycle Compound 186 (peptide)
peptide: [dD]VTCP[1Nal]G[Aib]F[1Nal]CP[Tle]NR[Aib]GC
modifications: linker 4-11-18 via TBMB′
B27: Bicycle Compound 181 (peptide)
peptide: Ac-[Sar][Sar]A[dD]VTCP[1Nal]G[Aib]F[1Nal]CPVNR[Aib]GC
modifications: linker 7-14-21 via TBMB′
B28: Bicycle Compound 261 (peptide)
peptide: Ac-[Sar][Sar]H[dD]VPCP[1Nal]G[Aib]F[1Nal]CPVNR[Aib]GC
modifications: linker 7-14-21 via TBMB
B29: Bicycle Compound 188 (peptide)
peptide: AHDVPCP[1Nal]GPFWCPVNRPGC
modifications: linker 6-13-20 via TBMB
B30: Bicycle Compound 171 (peptide)
peptide: Ac-[Sar][Sar]A[dD]VTCPWGP[hArg]WCPVNRPGC
modifications: linker 7-14-21 via TBMB′
B31: Bicycle Compound 179 (peptide)
peptide: Ac-[Sar][Sar]A[dD]VTCPWG[Aib]F[1Nal]CPVNR[Aib]GC
modifications: linker 7-14-21 via TBMB′
B32: Bicycle Compound 268 (peptide)
peptide: Ac-[Sar][Sar]H[dD]VPCPWG[Aib]F[1Nal]CPVNR[Aib]GC
modifications: linker 7-14-21 via TBMB
B33: Bicycle Compound 153 (peptide)
peptide: ADVHCPWG[Aib]FWCPVNRPGCA
modifications: linker 5-12-19 via TBMB′

T1 sequence (P29317 24-537): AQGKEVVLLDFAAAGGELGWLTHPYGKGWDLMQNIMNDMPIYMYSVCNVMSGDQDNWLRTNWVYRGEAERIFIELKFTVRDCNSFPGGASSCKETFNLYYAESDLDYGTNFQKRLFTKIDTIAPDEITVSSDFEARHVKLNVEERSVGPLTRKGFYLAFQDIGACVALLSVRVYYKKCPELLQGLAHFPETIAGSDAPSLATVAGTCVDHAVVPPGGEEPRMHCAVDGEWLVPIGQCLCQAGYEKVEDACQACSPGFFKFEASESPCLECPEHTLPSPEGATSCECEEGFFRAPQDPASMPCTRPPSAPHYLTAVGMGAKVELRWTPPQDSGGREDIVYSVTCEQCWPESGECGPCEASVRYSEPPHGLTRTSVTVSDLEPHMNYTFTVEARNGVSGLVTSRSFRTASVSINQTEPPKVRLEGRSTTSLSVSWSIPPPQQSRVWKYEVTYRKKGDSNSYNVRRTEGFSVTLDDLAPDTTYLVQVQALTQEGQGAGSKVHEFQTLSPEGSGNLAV

The experiment addresses T1, Human EphA2 (Ecto) (Human, UniProt P29317 24-537).
T1 construct: extracellular domain
In words: FP competition, tracer Compound 18. How it is done:
Peptides without a fluorescent tag were tested in competition with a peptide with a fluorescent tag and a known Kd (Table 2). Peptides were diluted to an appropriate concentration in assay buffer as described in the direct binding assay with a maximum of 5% DMSO, then serially diluted 1 in 2. […] Measurements were conducted as for the direct binding assay, however the gain was determined prior to the first measurement. Data analysis was in Systat Sigmaplot version 12.0 where the mP values were fit to a user defined cubic equation to generate a Ki value: […]
In the case of B1, the Ki was found to be 0.12 nM. Molecule B2 displayed a Ki of 2.17 nM. Turning to B3, the Ki amounted to 52.8 nM. This Ki is about 24-fold higher than that of the molecule before. With B4 the figure was 138 nM; with B5, 76.7 nM. Molecule B6 registered an inhibition constant Ki of 185 nM. On to B7, for which affinity was put at a Ki of 5.03 nM.

Molecule B8 showed a Ki of 4.43 nM. The molecule B9 gave a Ki of 1.3 nM. B10 gave an inhibition constant Ki of 2.55 nM. Against the preceding molecule, the Ki is about 2-fold higher.

Molecule B11 gave a Ki of 0.91 nM. With B12 the figure was 1.2 nM; with B13, 3.96 nM; with B14, 1.09 nM. B15 returned a Ki of 2.85 nM. This Ki is about 2.6-fold higher than that of the molecule before. Next, B16: 9.1 nM; B17: 0.6 nM; B18: 2.4 nM. Next, B19: 1.6 nM. For B20, the inhibitory constant (Ki) is 3.83 nM.

The molecule B21 showed an inhibitory constant (Ki) of 1.52 nM. Against the preceding molecule, the Ki is about 2.5-fold lower. As to B22, affinity was put at a Ki of 2.6 nM.

Molecule B23 registered an inhibition constant (Ki) of 4.44 nM. With B24 the figure was 0.32 nM; with B25, 2.25 nM. B26 showed a Ki of 1.34 nM. Compared with the last molecule, the Ki is about 1.7-fold lower.

Molecule B27 had an inhibition constant Ki of 1.37 nM.

Molecule B28 yielded a Ki of 0.63 nM. B29: the Ki amounted to 1.45 nM. For the molecule B30, the affinity corresponds to a Ki of 4.88 nM. The molecule B31 returned a Ki of 2.94 nM. Turning to B32, the Ki worked out at 1.24 nM.

B33 registered a Ki of 0.51 nM.
